Patent CN105367658A (ZHU JIN, dated 2016)

Biological target: T1, 重组人唾液酸结合免疫球蛋白样凝集素-9蛋白 (human, UniProt Q9Y336 18-348, limits assumed)
T1 construct: Purified recombinant protein coated on ELISA plates and (as 'antigen') coupled to the CM5 chip; also called recombinant human Siglec-9; Siglec9蛋白
Experiment: SPR (Biacore X100), antigen coupled to CM5 chip, analyte 0-80 nM

T1 sequence (Q9Y336 18-348 limits assumed): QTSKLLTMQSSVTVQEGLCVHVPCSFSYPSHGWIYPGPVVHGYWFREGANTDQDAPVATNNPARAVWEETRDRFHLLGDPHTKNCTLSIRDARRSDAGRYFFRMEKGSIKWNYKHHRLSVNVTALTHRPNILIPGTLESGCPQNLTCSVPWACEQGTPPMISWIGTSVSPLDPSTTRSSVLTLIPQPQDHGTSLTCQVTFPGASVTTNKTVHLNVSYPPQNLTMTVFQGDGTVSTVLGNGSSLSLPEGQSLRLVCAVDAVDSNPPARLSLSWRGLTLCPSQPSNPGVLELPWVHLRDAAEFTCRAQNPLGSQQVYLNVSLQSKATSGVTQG

Kd: 0.738 nM
B1: 人源抗唾液酸结合免疫球蛋白样凝集素-9抗体IgG (antibody, V domains shown)
VH: EVQLVESGAEVKKPGASVKVSCKASGYIFTGYYMHWVRQAPGQGLEWMGWINPKSGGTNYAQKFQGRVTMTRDTSISTAYMELSRLRSDDTAVYYCVRDLGATGGDYWGQGTLVTVSS
VL: ELVLTQPPSVSVSPGQTARVTCSGDALPKKYAYWYQQKSGQAPILVIYGDNKRPSGIPERFSGSSSGTMATLTISGAQVEDEADYYCYSIDRSGNRVFGGGTRLTVLQ
notes: also called PA21抗体; 抗Siglec-9抗体
